The results in this text go back to patent publication US20230106247A1 (L AND L BIO CO LTD NINGBO CHINA, published 2023).

Substitutions are numbered along the chain they refer to.

B1: humanized antibody mab14-h14 (antibody, human IgG4 S228P, kappa, V domains shown)
VH: QVQLVQSGAEVKKPGASVKVSCKASGYNFNIYWINWVRQAPGQGLEWIGNIYPSSISTNYNEKFKTRATLTVDKSTSTVYMELSSLRSEDTAVYYCARSEGTYYGGRYEGDWFGYWGQGTLVTVSS
VL: DIQMTQSPSSLSASVGDRVTITCRASQDIRNYLNWYQQKPGGTPKLLIYFTSTLHSGVPSRFSGSGSGTDYTLTISSLQPEDFATYYCQQGNTLPWTFGGGTKVEIKR
notes: hIgG4, κ
B2: humanized antibody mab14-h2 (antibody, human IgG4 S228P, kappa, V domains shown)
VH: B1 VH with R38K, R67K, L83F
VL: B1 VL with P44V
notes: hIgG4, κ
B3: humanized antibody mab14-h5 (antibody, human IgG4 S228P, kappa, V domains shown)
VH: B1 VH
VL: B1 VL with P44V
notes: hIgG4, κ
B4: humanized antibody mab14-h10 (antibody, human IgG4 S228P, kappa, V domains shown)
VH: B1 VH with R38K, R67K, L83F
VL: B1 VL
notes: hIgG4, κ
B5: humanized antibody mab14-h6 (antibody, human IgG4 S228P, kappa, V domains shown)
VH: B1 VH with R38K, K74T
VL: B1 VL with P44V
notes: hIgG4, κ
B6: humanized antibody mab14-h8 (antibody, human IgG4 S228P, kappa, V domains shown)
VH: B1 VH with R38K, R67K, L83F
VL: B1 VL with Y71F
notes: hIgG4, κ
B7: humanized antibody mab14-h7 (antibody, human IgG4 S228P, kappa, V domains shown)
VH: B1 VH with R38K, R67K, K74T
VL: B1 VL with P44V
notes: hIgG4, κ
B8: humanized antibody mab14-h3 (antibody, human IgG4 S228P, kappa, V domains shown)
VH: B1 VH with I48M, K74T
VL: B1 VL with P44V
notes: hIgG4, κ
B9: humanized antibody mab14-h15 (antibody, human IgG4 S228P, kappa, V domains shown)
VH: B1 VH
VL: B1 VL with G42K
notes: hIgG4, κ
B10: humanized antibody mab14-h9 (antibody, human IgG4 S228P, kappa, V domains shown)
VH: B1 VH with R38K, R67K, L83F
VL: B1 VL with T43A
notes: hIgG4, κ
B11: humanized antibody mab14-h13 (antibody, human IgG4 S228P, kappa, V domains shown)
VH: B1 VH
VL: B1 VL with T43A
notes: hIgG4, κ
B12: humanized antibody mab14-h1 (antibody, human IgG4 S228P, kappa, V domains shown)
VH: B1 VH with I48M, A68V, L70M, V72R, K74T
VL: B1 VL with G42K, T43A, Y71F
notes: hIgG4, κ
B13: humanized antibody mab14-h4 (antibody, human IgG4 S228P, kappa, V domains shown)
VH: B1 VH with K74T
VL: B1 VL with P44V
notes: hIgG4, κ
B14: humanized antibody mab14-h11 (antibody, human IgG4 S228P, kappa, V domains shown)
VH: B1 VH with R38K, R67K, L83F
VL: B1 VL with G42K
notes: hIgG4, κ
B15: humanized antibody mab14-h12 (antibody, human IgG4 S228P, kappa, V domains shown)
VH: B1 VH
VL: B1 VL with Y71F
notes: hIgG4, κ
B16: bispecific antibody LB502 (bispecific antibody, human IgG4 S228P, kappa)
light: EIVLTQSPATLSLSPGERATLSCRASKGVSTSGYSYLHWYQQKPGQAPRLLIYLASYLESGVPARFSGSGSGTDFTLTISSLEPEDFAVYYCQHSRDLPLTFGGGTKVEIKRTVAAPSVFIFPPSDEQLKSGTASVVCLLNNFYPREAKVQWKVDNALQSGNSQESVTEQDSKDSTYSLSSTLTLSKADYEKHKVYACEVTHQGLSSPVTKSFNRGEC
heavy: not shown
notes: mab14-h16 scFv at the N-terminus of the Pem heavy chain
B17: bispecific antibody LB503 (bispecific antibody, human IgG4 S228P, kappa)
light: EIVLTQSPATLSLSPGERATLSCRASKGVSTSGYSYLHWYQQKPGQAPRLLIYLASYLESGVPARFSGSGSGTDFTLTISSLEPEDFAVYYCQHSRDLPLTFGGGTKVEIKRTVAAPSVFIFPPSDEQLKSGTASVVCLLNNFYPREAKVQWKVDNALQSGNSQESVTEQDSKDSTYSLSSTLTLSKADYEKHKVYACEVTHQGLSSPVTKSFNRGECAGGGGSGGGGSGGGGSQVQLVQSGAEVKKPGASVKVSCKASGYNFNIYWINWVRQAPGQGLEWIGNIYPSSISTNYNEKFKTRATLTVDKSTSTVYMELSSLRSEDTAVYYCARSEGTYYGGRYEGDWFGYWGQGTLVTVSSGGGGSGGGGSGGGGSDIQMTQSPSSLSASVGDRVTITCRASQDIRNYLNWYQQKPGKAPKLLIYFTSTLHSGVPSRFSGSGSGTDFTLTISSLQPEDFATYYCQQGNTLPWTFGGGTKVEIK
heavy: not shown
notes: mab14-h16 scFv at the C-terminus of the Pem light chain
B18: bispecific antibody LB501 (bispecific antibody, human IgG4 S228P, kappa)
light: DIQMTQSPSSLSASVGDRVTITCRASQDIRNYLNWYQQKPGKAPKLLIYFTSTLHSGVPSRFSGSGSGTDFTLTISSLQPEDFATYYCQQGNTLPWTFGGGTKVEIKGGGGSGGGGSGGGGSQVQLVQSGAEVKKPGASVKVSCKASGYNFNIYWINWVRQAPGQGLEWIGNIYPSSISTNYNEKFKTRATLTVDKSTSTVYMELSSLRSEDTAVYYCARSEGTYYGGRYEGDWFGYWGQGTLVTVSSGGGGSGGGGSGGGGSEIVLTQSPATLSLSPGERATLSCRASKGVSTSGYSYLHWYQQKPGQAPRLLIYLASYLESGVPARFSGSGSGTDFTLTISSLEPEDFAVYYCQHSRDLPLTFGGGTKVEIKRTVAAPSVFIFPPSDEQLKSGTASVVCLLNNFYPREAKVQWKVDNALQSGNSQESVTEQDSKDSTYSLSSTLTLSKADYEKHKVYACEVTHQGLSSPVTKSFNRGEC
heavy: not shown
notes: mab14-h16 scFv at the N-terminus of the Pem light chain

For one assay, the target named is T1, human Sirpα-V1-his (human, UniProt P78324 31-373).
T1 construct: range 31-373; Bought (Sino Biological 11612-H08H) or expressed in-house; also called hSirpα-V1; hSirpα-V1-his
In words: ELISA.
B1: the midpoint of the response, the EC50, lay at 0.057 nM.
Still for that read-out and setting: in the case of B2 it was 0.073 nM; in that of B3, 0.061 nM; in that of B4, 0.068 nM.
On the same count and under the same terms, the result for B5 reads 0.095 nM; that for B6, 0.067 nM.
B7: the concentration for a half-maximal effect (EC50) (commonly the concentration giving half of the maximal effect) was 0.081 nM.
Still for that read-out and setting: in the case of B8 it was 0.103 nM; in that of B9, 0.077 nM.
Same read-out and setting: the result for B10 reads 0.062 nM; that for B11, 0.089 nM.
On the same count and under the same terms, the result for B12 reads 0.148 nM; that for B13, 0.088 nM; that for B14, 0.073 nM.
For B15, the midpoint of the response, the EC50, lay at 0.092 nM.

A further assay addresses T1, human Sirpα-V1-his. In words: ELISA. The source holds these as a separate data set. As to the method:
(§1) The self-expressed human PD-1, Sirpα and the like antigens of the present disclosure were diluted with a PBS buffer at pH7.4 to a concentration of 2 μg/mL according to different assays, and then added into a 96-well ELISA plate (Corning, CLS3590-100EA) at a volume of 50 μL/well, and placed in an incubator at 37° C. for 2 hours. After the liquid was discarded, the wells were added with a blocking solution of 5% skimmed milk (Sangon Biotech (Shanghai) Co., Ltd., A600669-0250) diluted with PBS at 200 μL/well, and incubated in an incubator at 37° C. for 3 hours, or placed overnight at 4° C. (for 16-18 hours) for blocking. The blocking solution was discarded, and the plate was washed with a PBST buffer (pH7.4 PBS containing 0.05% tween-20) for 5 times, then added with 50 μL/well of 5-fold serial dilution of the antibody to be tested in 1% BSA, and incubated at 37° C. for 1 hour. […] The plated was washed with PBST for 5 times, then added with 50 μL/well of TMB chromogenic substrate (KPL, 52-00-03), incubated at room temperature for 5-10 min, added with 50 μL/well of 1 M H₂SO₄ to stop the reaction, and read by a […] Go microplate reader (ThermoFisher, 51119200) for the absorbance value at 450 nm, and then EC₅₀ was calculated according to the OD value.
(§2) The aforementioned bispecific antibodies were cloned, expressed and purified according to the cloning, expression and purification methods of Example 1 of the present disclosure.
In general terms: In an ELISA, binding on a coated surface is turned into a signal by an enzyme label.
In turn, B16 showed an EC50 of 0.066 nM.
On the same count and under the same terms, the result for B17 reads 0.075 nM; that for B18, 0.059 nM.

For the next assay, the target named is T2, human PD-1 (recombinant, hFc/his tag) (human, UniProt Q15116 21-167).
T2 construct: not shown: hFc or his tag
In words: ELISA. As to the method:
as §1, §2
Turning to B16, the concentration giving a half-maximal response (EC50) was 0.074 nM.
With B17, the 50% effective concentration (EC50) stood at 0.063 nM.
On the same count and under the same terms, in the case of B18 it was 0.075 nM.

A further assay has as its target T2, human PD-1 (recombinant, hFc/his tag). In words: blocking ELISA, competitor PD-L1. As to the method: (§3) The antigens PD-1 and Sirpα expressed according to the method of Example 1 were diluted with a PBS buffer at pH7.4 to a concentration of 2 μg/mL, added into a 96-well ELISA plate (Corning, CLS3590-100EA) at a volume of 50 μL/well, and incubated at 37° C. for 2 hours. After the liquid was discarded, the wells were added with a blocking solution of 5% skimmed milk (Sangon Biotech (Shanghai) Co., Ltd., A600669-0250) formulated with PBS at 200 μL/well, and incubated at 37° C. for 3 hours for blocking. […] The plate was washed with PBST for 5 times, added with 50 μL/well of HRP-labeled secondary antibody (GenScript Biotechnology Co., Ltd., M00091) diluted at 1:1000, and incubated at 37° C. for 1 hour. The plated was washed with PBST for 5 times, then added with 50 μl/well of TMB chromogenic substrate (KPL, 52-00-03), incubated at room temperature for 5-10 min, added with 50 μl/well of 1 M H₂SO₄ to stop the reaction, and read by a […] Go microplate reader (ThermoFisher, 51119200) for the absorbance value at 450 nm, and then IC₅₀ was calculated according to the OD value.
For B16, the half-maximal inhibitory concentration (IC50) (as a rule, the point on the concentration scale where inhibition reaches its midpoint) turned out to be 2 nM.
On the same count and under the same terms, the result for B17 reads 1.45 nM.
Consider B18, for which the half-inhibitory concentration (IC50) is 1.3 nM.

For another assay, the target named is T1, human Sirpα-V1-his. In words: blocking ELISA, competitor CD47-hFc. The method, then: (§4) The recombinant proteins such as human Sirpα-V1-hFc/Sirpα-V1-his were diluted to concentrations of 5 μg/mL or 2 μg/mL respectively with a PBS buffer at pH 7.4, and then added into a 96-well ELISA plate (Corning, CLS3590-100EA) at a volume of 50 μL/well, and placed in an incubator at 37° C. for 2 hours. After the liquid was discarded, the wells were added with a blocking solution of 5% skimmed milk (skimmed milk powder available from Bright Dairy) diluted with PBS at 230 μL/well, and incubated in an incubator at 37° C. for 3 hours, or placed overnight at 4° C. (for 16-18 hours) for blocking. […] The plate was washed for 5 times, added with 50 μL/well of streptavidin-HRP (GenScript, M00091) or anti-his-HRP secondary antibody (GenScript, A00612) diluted at 1:1000, incubated at 37° C. for 1 hour, and then washed with PBST for 5 times. Each well was added with 50 μL of TMB (Surmodic, Cat #: TTMB-1000-01) for color development, and added with 50 μL/well of 1 M H₂SO₄ to stop the reaction. The readings on a microplate reader (MultiskanGO Thermo, Model 51119200) were subjected to data analysis by GraphPad prism 5.
The molecule B1 showed an IC50 of 9.1 nM.
The same measure, in the same setting: the result for B3 reads 8.47 nM; that for B9, 7.37 nM; that for B11, 9.56 nM.
Same read-out and setting: the result for B15 reads 8.08 nM.

Another assay deals with T3, human Sirpα-V1-hFc (human, UniProt P78324 31-373).
T3 construct: range 31-373; also called hSirpα (dimer); hSirpα-V1-hFc (dimer); not shown: human IgG1 Fc region at the C-terminus
In words: blocking ELISA, competitor CD47-his. The method, then:
as §4
In turn, B1 registered an IC50 of 4.75 nM.
Turning to B3, the IC50 was 8.99 nM.
On the same count and under the same terms, the result for B9 reads 5.13 nM; that for B11, 5.31 nM.
Same read-out and setting: in the case of B15 it was 3.49 nM.

The target in the next assay is T1, human Sirpα-V1-his. In words: blocking ELISA, competitor CD47-hFc. The source holds these as a separate data set. The method, then: as §3
For B16, the IC50 was 5.37 nM.
Regarding B17, the IC50 was 7.63 nM.
On to B18, for which the IC50 came out at 5.42 nM.

In another assay the target is T3, human Sirpα-V1-hFc. In words: blocking ELISA, competitor CD47-his. This is another data set of the same source. As to the method: as §3
In turn, B16 had an IC50 of 3.78 nM.
B17 gave an IC50 of 4.8 nM.
Still for that read-out and setting: the result for B18 reads 2.55 nM.
